Assay results as given in article PMC10456876.
Like-named read-outs stand apart in the source and are kept apart here.

What was measured:
[1] = target: human telomeric nucleosome core particle (teloNCP), P68431;P62805;P04908;P06899; assay: EMSA; settings: point at 200 nM TRF1core; triplicate; parent: est. 100; read off a plot
[2] = target: human telomeric nucleosome core particle (teloNCP) (human) (UniProt P68431); assay: cryo-EM structure; TRF1core-teloNCP complex from the glycerol gradient, cross-linked with 0.5 mM BS3; 2:1 complex at 2.7 Å, 4:1 complex at 6.7 Å (rigid-body docking)
[3] = target: human telomeric nucleosome core particle (teloNCP) (human) (UniProt P68431); assay: as above; remark: listed apart in the source

wild-type MBP-tagged TRF1core (TRF1-TIN2-TPP1), sequence (Q9BSI4 whole entry, looked up): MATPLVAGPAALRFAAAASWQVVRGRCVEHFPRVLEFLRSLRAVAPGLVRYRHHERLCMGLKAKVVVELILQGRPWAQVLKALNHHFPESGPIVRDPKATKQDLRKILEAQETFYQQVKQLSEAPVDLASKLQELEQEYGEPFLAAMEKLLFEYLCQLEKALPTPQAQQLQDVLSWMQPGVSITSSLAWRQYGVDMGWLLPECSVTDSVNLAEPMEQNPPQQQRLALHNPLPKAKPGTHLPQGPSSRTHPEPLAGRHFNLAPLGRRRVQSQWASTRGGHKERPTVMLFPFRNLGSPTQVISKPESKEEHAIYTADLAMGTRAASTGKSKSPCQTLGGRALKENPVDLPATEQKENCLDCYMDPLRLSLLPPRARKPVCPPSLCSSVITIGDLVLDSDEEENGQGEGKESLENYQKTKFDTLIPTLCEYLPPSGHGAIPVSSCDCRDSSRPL
wild-type MBP-tagged TRF1core (TRF1-TIN2-TPP1), sequence (P54274 whole entry, looked up, stated change not applied): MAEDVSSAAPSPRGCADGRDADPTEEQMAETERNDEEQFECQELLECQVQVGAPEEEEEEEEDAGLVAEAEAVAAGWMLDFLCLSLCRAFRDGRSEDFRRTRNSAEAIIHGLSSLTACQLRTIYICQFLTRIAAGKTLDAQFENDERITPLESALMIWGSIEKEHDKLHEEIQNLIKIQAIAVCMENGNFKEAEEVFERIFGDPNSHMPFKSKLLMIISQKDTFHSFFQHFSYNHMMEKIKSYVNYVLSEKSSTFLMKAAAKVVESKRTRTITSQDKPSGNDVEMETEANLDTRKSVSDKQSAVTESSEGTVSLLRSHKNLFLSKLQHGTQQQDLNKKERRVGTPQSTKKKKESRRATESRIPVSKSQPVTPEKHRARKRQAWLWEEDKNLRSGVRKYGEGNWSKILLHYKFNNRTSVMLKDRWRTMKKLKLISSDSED

## wild-type MBP-tagged TRF1core (TRF1-TIN2-TPP1) (from UniProt P54274;Q9BSI4) S434A; S435A; S437A
[1]
  response: 17 % Bound

## shelterin TRF1-TIN2-TPP1 subcomplex (TRF1core), untagged (from UniProt P54274 1-439; Q9BSI4 1-451)
[2]
  TRF1 Myb domains bound per teloNCP: 4
[3]
  TRF1 Myb domains bound per teloNCP: 2
